From publication PMC3829167, “Directed Evolution of an Angiopoietin-2 Ligand Trap by Somatic Hypermutation and Cell Surface Display*” (The Journal of Biological Chemistry, 2013) come the findings set out here.

In test [1] the target is T1, human angiopoietin 1 (human, UniProt Q15389 16-498).
T1 construct: human angiopoietin 1 (Ang1), recombinant protein from R&D Systems; in the other experiments it was detected with anti-Ang1 or immobilised; also called Ang1; source: bought: R&D Systems
T1 sequence (looked up): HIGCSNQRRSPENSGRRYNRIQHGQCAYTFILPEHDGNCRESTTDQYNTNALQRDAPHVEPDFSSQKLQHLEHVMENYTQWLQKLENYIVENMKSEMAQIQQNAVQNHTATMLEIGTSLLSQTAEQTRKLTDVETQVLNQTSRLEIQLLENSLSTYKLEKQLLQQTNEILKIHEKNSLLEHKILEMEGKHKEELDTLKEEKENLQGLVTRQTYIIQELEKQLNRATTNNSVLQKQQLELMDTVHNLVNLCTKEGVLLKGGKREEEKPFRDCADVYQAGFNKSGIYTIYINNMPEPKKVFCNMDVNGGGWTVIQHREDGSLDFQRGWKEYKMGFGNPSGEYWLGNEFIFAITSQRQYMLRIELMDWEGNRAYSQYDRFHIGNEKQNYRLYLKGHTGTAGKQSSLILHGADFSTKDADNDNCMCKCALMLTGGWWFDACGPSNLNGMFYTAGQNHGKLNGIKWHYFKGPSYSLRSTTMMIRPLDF
Briefly: ELISA; 5 μg/ml Ang1 or Ang2 immobilised in 96-well plates; blocked with TBS, 1 mg/ml BSA, 0.1% Triton-X 100; ectodomain-Fc fusion protein bound for 1 h at different concentrations, detected with anti-Tie2 ectodomain antibodies; saturation binding curves fitted by nonlinear regression. The note with it: both partners purified. A general note: In an ELISA, binding on a coated surface is turned into a signal by an enzyme label.

Test [2] addresses T2, human angiopoietin 2 (human, UniProt O15123 19-496).
T2 construct: human angiopoietin 2 (Ang2), recombinant protein from R&D Systems; also called Ang2; source: bought: R&D Systems
T2 sequence (looked up): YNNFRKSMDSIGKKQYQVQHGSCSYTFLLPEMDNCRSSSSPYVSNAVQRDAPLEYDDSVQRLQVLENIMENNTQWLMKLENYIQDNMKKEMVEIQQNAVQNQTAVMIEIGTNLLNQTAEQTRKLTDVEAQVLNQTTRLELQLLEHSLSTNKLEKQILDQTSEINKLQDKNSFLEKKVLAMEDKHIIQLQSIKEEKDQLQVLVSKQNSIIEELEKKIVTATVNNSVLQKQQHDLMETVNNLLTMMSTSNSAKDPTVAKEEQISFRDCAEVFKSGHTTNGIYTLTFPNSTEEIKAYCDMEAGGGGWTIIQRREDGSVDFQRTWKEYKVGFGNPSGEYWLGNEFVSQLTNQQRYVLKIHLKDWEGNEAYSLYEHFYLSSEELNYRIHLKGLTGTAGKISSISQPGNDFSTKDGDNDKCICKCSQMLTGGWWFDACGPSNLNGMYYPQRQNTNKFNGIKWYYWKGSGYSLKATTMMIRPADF
Described as above. Conditions: both partners purified.

B1: soluble evolved (R3) Tie2 ectodomain (1-442)-Fc fusion protein (Fc fusion, human, UniProt Q02763 23-442, looked up)
chain: AMDLILINSLPLVSDAETSLTCIASGWRPHEPITIGRDFEALMNQHQDPLEVTQDVTREWAKKVVWKREKASKINGAYFCEGRVRGEAIRIRTMKMRQQASFLPATLTMTVDKGDNVNISFKKVLIKEEDAVIYKNGSIIHSVPEVPDILEVHLPHAQPQDAGVYSARYIGGNLFTSAFTRLIVRRCEAQKWGPECNHLCTACMNNGVCHEDTGECICPPGFMGRTCEKACELHTFGRTCKERCSGQEGCKSYVFCLPDPYGCSCATGWKGLQCNEACHPGFYGPDCKLRCSCNNGEMCDRFQGCLCSPGWQGLQCEREGIQRMTPKIVDLPDHIEVNSGKFNPICKASGWPLPTNEEMTLVKPDGTVLHPKDFNHTDHFSVAIFTIHRILPPDSGVWVCSVNTVAGMVEKPFNISVK
notes: signal peptide in the construct; human Tie2 ectodomain, residues 1-442, with F161I and the deletion of Arg-167/His-168 introduced by site-directed mutagenesis; The changes were found by directed evolution and put into m3 by site-directed mutagenesis; also called evolved ectodomain; R3 ectodomain; source: HEK293 cells, transfected, secreted, purified (nickel-nitrilotriacetic acid chromatography); …
On to B1, for which the “Max binding (% of WT)” value in test [1] is 3 % of WT; in test [2] it was 59.4 % of WT.

B2: soluble Tie2 ectodomain (1-442)-Fc fusion protein with the double Arg-167/His-168 deletion (Fc fusion, human, UniProt Q02763 23-442, looked up)
chain: AMDLILINSLPLVSDAETSLTCIASGWRPHEPITIGRDFEALMNQHQDPLEVTQDVTREWAKKVVWKREKASKINGAYFCEGRVRGEAIRIRTMKMRQQASFLPATLTMTVDKGDNVNISFKKVLIKEEDAVIYKNGSFIHSVPEVPDILEVHLPHAQPQDAGVYSARYIGGNLFTSAFTRLIVRRCEAQKWGPECNHLCTACMNNGVCHEDTGECICPPGFMGRTCEKACELHTFGRTCKERCSGQEGCKSYVFCLPDPYGCSCATGWKGLQCNEACHPGFYGPDCKLRCSCNNGEMCDRFQGCLCSPGWQGLQCEREGIQRMTPKIVDLPDHIEVNSGKFNPICKASGWPLPTNEEMTLVKPDGTVLHPKDFNHTDHFSVAIFTIHRILPPDSGVWVCSVNTVAGMVEKPFNISVK
notes: signal peptide in the construct; human Tie2 ectodomain, residues 1-442, Arg-167 and His-168 deleted; also called ΔRH; ΔArg-167/His-168; source: HEK293 cells, transfected, secreted, purified (nickel-nitrilotriacetic acid chromatography); not shown: Fc (human), C-terminal, kept
As for B2, the “Max binding (% of WT)” value is 0.29 % of WT in test [1] and 0.58 % of WT in test [2].

B3: soluble Tie2 ectodomain (1-442)-Fc fusion protein with F161I substitution (Fc fusion, human, UniProt Q02763 23-442, looked up)
chain: AMDLILINSLPLVSDAETSLTCIASGWRPHEPITIGRDFEALMNQHQDPLEVTQDVTREWAKKVVWKREKASKINGAYFCEGRVRGEAIRIRTMKMRQQASFLPATLTMTVDKGDNVNISFKKVLIKEEDAVIYKNGSIIHSVPRHEVPDILEVHLPHAQPQDAGVYSARYIGGNLFTSAFTRLIVRRCEAQKWGPECNHLCTACMNNGVCHEDTGECICPPGFMGRTCEKACELHTFGRTCKERCSGQEGCKSYVFCLPDPYGCSCATGWKGLQCNEACHPGFYGPDCKLRCSCNNGEMCDRFQGCLCSPGWQGLQCEREGIQRMTPKIVDLPDHIEVNSGKFNPICKASGWPLPTNEEMTLVKPDGTVLHPKDFNHTDHFSVAIFTIHRILPPDSGVWVCSVNTVAGMVEKPFNISVK
notes: signal peptide in the construct; human Tie2 ectodomain, residues 1-442, F161I; also called F/I; F161I ectodomain; source: HEK293 cells, transfected, secreted, purified (nickel-nitrilotriacetic acid chromatography); not shown: Fc (human), C-terminal, kept
B3: the “Max binding (% of WT)” value in test [1] is 97.8 % of WT; in test [2], 90.5 % of WT.
